Reference: article PMC3282739

Experiments:
[1] = molecular target: Cthe_2751 (Clostridium thermocellum); test: SEC; Hi Load 10/300 Superdex G75 gel filtration column equilibrated with 20 mM Tris-HCl, 100 mM NaCl, pH 8.0
[2] = molecular target: Cthe_2751 (Clostridium thermocellum); test: AUC; sedimentation velocity in an analytical ultracentrifuge; curve generated with Sedfit

How did the stoichiometry N [1] turn out when Cthe_2751 (natural protein) was run?
The stoichiometry N was 2.

And the stoichiometry N [2]?
Its stoichiometry N is 2.
